Data as given in US20220411495A1, “POSITIVE ALLOSTERIC MODULATORS OF THE CALCIUM-SENSING RECEPTOR” (VIB VZW, priority 2019, published 2022).

T1: human CaSR wild type (hCaSR WT) (Homo sapiens, UniProt P41180, E1011Q)
T1 construct: mGlu5 signal peptide (N, cleaved yes); expressed in transfected cells
T1 sequence (P41180 20-1078 E1011Q): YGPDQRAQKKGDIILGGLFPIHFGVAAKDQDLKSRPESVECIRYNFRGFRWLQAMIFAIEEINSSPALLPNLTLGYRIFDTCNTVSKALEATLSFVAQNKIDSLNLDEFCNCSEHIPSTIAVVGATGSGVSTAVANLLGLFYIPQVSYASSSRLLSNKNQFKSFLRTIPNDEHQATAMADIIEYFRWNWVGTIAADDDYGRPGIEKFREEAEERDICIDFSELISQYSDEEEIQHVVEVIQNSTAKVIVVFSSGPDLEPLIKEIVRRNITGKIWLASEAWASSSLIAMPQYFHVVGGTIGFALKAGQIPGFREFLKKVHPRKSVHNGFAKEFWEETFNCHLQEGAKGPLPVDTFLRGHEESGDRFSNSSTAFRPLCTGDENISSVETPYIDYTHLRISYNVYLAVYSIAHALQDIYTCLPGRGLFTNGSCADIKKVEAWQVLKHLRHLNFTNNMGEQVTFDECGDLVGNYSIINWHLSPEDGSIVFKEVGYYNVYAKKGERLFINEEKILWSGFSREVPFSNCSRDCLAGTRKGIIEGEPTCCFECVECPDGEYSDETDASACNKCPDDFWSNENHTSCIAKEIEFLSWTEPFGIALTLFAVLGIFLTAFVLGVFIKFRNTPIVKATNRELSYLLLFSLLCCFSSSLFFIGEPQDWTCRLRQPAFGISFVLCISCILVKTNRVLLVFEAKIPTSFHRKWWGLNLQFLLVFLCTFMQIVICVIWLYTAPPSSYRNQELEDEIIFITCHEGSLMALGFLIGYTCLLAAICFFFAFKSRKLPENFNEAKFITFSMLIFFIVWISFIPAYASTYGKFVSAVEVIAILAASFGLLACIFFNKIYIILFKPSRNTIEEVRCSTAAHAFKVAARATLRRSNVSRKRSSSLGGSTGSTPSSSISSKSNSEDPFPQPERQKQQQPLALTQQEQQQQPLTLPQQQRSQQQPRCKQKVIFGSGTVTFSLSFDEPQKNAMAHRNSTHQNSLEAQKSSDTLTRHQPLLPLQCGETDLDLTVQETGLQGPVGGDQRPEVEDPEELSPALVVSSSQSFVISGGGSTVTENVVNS


Biological target: T1, human CaSR wild type (hCaSR WT)
Test: IP1 accumulation assay, Flp-In HEK293 HA-hCaSR WT cells
Type: cell-based
Conditions: for Effect on Ca2+ concentration-response curve (IP1): increasing concentrations of PAM; for PAM activity in IP1 accumulation screen: fixed nanobody concentration 5 μM, 30 min pre-incubation
Method: Nanobodies were successfully purified by immobilized metal ion affinity chromatography (IMAC) and size exclusion chromatography (SEC) prior to pharmacological characterization (FIG. 1). Each nanobody was initially screened for Gq/11 activity in the Cisbio IP1 accumulation assay as this is the primary signaling pathway of CaSR (Chavez-Abiega et al., 2020). Whole HEK293 HA-hCaSR WT cells were pre-incubated for 30 minutes at 37° C. with a fixed nanobody concentration (5 μM) prior to stimulation with the endogenous ligand Ca^2+. The well characterized positive allosteric modulator (PAM) chemical NPS R-568 and negative allosteric modulator (NAM) chemical NPS 2143 were added as reference compounds. […] No nanobodies with agonist or NAM activity were observed when all nanobodies screened in the absence or in the presence of EC80 Ca^2+, respectively (FIGS. 4A and 4B). […] Except for CaSR Nb5, the same nanobodies acted as PAMs when ERK1/2 phosphorylation was measured in the presence of EC20 Ca^2+ (FIG. 2B). Again, none of the nanobodies elicited an agonist or NAM response (FIGS. 5B and 5C).
All cell lines utilized in this study were grown at 37° C. and 5% CO2. The HEK293A (RRID: CVCL_6910) and stable Flp-In HEK293 cells were cultured in Dulbecco's Modified Eagle Medium (DMEM, #31966021) supplemented with 10% dialyzed Fetal Bovine Serum (dFBS) and 1% 10,000 units/mL penicillin and 10,000 μg/mL streptomycin mixture (pen/strep). The stable Flp-In CHO cells were cultured in F-12K medium (#21127022) supplemented with 10% dFBS and 1% pen/strep. Additionally, the stable Flp-In HEK293 and Flp-In CHO cell lines were cultured in the presence of respectively 200 and 500 μg/mL hygromycin B. For pharmacological characterization, Flp-In HEK293 HA-hCaSR WT cells were seeded in poly-D-lysine-coated clear 96 well tissue culture plates (Corning, Corning, N.Y., USA) at a density of 50,000 cells/well 18 h prior to assay. Experiments with HA-rCaSR WT and HA-hCaSR S170A required transient transfection of HEK293A cells 24 h prior to assay. DNA construct and Lipofectamine 2000 were diluted in Opti-MEM and mixed together after 5 minutes incubation at room temperature. For HA-rCaSR WT, 30 ng/well rCaSR DNA diluted in 25 μL/well Opti-MEM was mixed with 0.25 μL/well Lipofectamine 2000 in 25 μL/well Opti-MEM. For HA-hCaSR S170A, 40 ng/well […] DNA diluted in 25 μL/well Opti-MEM was mixed with 0.25 μL/well Lipofectamine 2000 in 25 μL/well Opti-MEM. The DNA:Lipofectamine 2000 mixtures were incubated 20 minutes at room temperature after which 50 μL/well was added to a poly-D-lysine-coated clear 96 well tissue culture plate. Next, 100 μL/well of a 400,000 cells/mL HEK293A cell solution prepared in culture media was added and the plate was placed at 37° C. and 5% CO2 (final cell density 40,000 cells/well).
Inositol monophosphate (IP1) accumulation was measured using the commercially available HTRF® IP1 accumulation kit (Cisbio Bioassays, Codolet, France) and an EnVision multimode plate reader (PerkinElmer, Waltham, Mass., USA). Unless stated otherwise, the cells were washed once with 100 μL/well assay buffer and stimulated for 30 minutes at 37° C. with 50 μL/well ligand(s) diluted in assay buffer supplemented with 20 mM LiCl. Following stimulation, the cells were washed once with 100 μL/well and lysed for 30 minutes at room temperature with 30 μL/well lysis buffer provided with the kit. The lysed cells were diluted 1:2 with assay buffer after which 10 μL/well was pipetted to a white 384-well OptiPlate (PerkinElmer, Waltham, Mass., USA). Next, 10 μL of a detection solution consisting of 2.5% IP1-d2 conjugate and 2.5% anti-IP1 antibody diluted in assay buffer was added to each well. Fluorophore emissions were measured after the plate was stored in the dark for 1 h. The 615/665 nm emission ratios measured upon excitation at 340 nm were converted to IP1 concentrations with an IP1 standard curve according to the manufacturer's instructions.

[1] = IP1 accumulation at EC20 Ca2+, three independent experiments in triplicate

| Need for pre-incubation for PAM activity (IP1) (5 μM, with or without 30 minutes pre-incubation at 37° C., EC20 Ca2+) | IP1 accumulation in the absence of added Ca2+ (1:1 ratio, total 10 μM, alone = combined with inactive Nb7) | Max. response (fold over basal ± S.E.M.), human ortholog (IP1 accumulation at EC20 Ca2+) [fold over basal] | EC50 (IP1 accumulation at EC20 Ca2+, three independent experiments in triplicate, read-out: Potency (pEC50 ± S.E.M.), human ortholog (converted)) [nM] | Effect on Ca2+ concentration-response curve (IP1) | Potency (pEC50 ± S.E.M.), human ortholog [1] | PAM activity in IP1 accumulation screen (EC20 Ca2+) | Molecule |
| --- | --- | --- | --- | --- | --- | --- | --- |
| did not require pre-incubation | did not induce IP1 accumulation | 3.89 ± 0.07 | 120 |  |  |  | COc1cccc([C@@H](C)NCCCc2ccccc2Cl)c1 [NPS R-568, reference compound] |
|  |  |  |  | leftward shift |  |  | C[C@@H](NCCCc1cccc(C(F)(F)F)c1)c1cccc2ccccc12 [cinacalcet, reference compound] |
|  |  | 4.78 ± 0.21 |  |  | 6.78 ± 0.17 | potentiated IP1 accumulation | Nb36: llama-derived CaSR-specific nanobody acting as PAM, SEQ ID NO:7 (protein, CaSR Nb36) VHH: QVQLVESGGGLVQAGESLRLSCAASGRTFSSYRMGWFRQGPGKEREFVAAITATGVRTYYADSVKGRFTISRDNAKNTVYLQMNSLQPDDTAVYLCAARRKAIFSVQQALTITDYDDWGQGTQVTVSS |
|  |  | 1.88 ± 0.05 |  |  |  | potentiated IP1 accumulation | Nb5: llama-derived CaSR-specific nanobody, weakest PAM, SEQ ID NO:8 (protein, CaSR Nb5) VHH: QVQLVESGGRLVQDGGSLRLSCAASGLTFSDYSMGWFRQVPGKEREFVAVIRRSNDSTYYADFVKGRFTISRDNAKNTVYLQMNSLQPEDTAVYSCAADRGGVGLTSAQTYAYWGQGTQVTVSS |
|  |  | 3.74 ± 0.08 |  | leftward shift | 7.08 ± 0.13 | potentiated IP1 accumulation | Nb4: llama-derived CaSR-specific nanobody acting as PAM, SEQ ID NO:5 (protein, CaSR Nb4) VHH: QVQLVESGGGLVQAGGSLRLSCAASGRTFSTYRMGWFRQGLGKEREFVAAITANGVRTFYTDSVKGRFTISRDNAKNTLYLQMNSLQPDDTAVYLCAARRKGIFTVQQAQDITDWDYWGQGTQVTVSS |
|  |  | 3.36 ± 0.09 |  |  | 6.33 ± 0.03 | potentiated IP1 accumulation | Nb10: llama-derived CaSR-specific nanobody acting as PAM, SEQ ID NO:3 (protein, CaSR Nb10) VHH: QVQLVESGGGLVQPGDSLRVSCAASGGSFRSYAMAWFRQAPGKEREFVAAMSGTYGSTIYSDSMKGRFTISRDNAKKMVYLRMNSLRPEDTAVYYCAGYYSGAYYGTPKTDYTEYDSWGQGTQVTVSS |
|  |  | 4.04 ± 0.32 |  |  | 6.22 ± 0.05 | potentiated IP1 accumulation | Nb37: llama-derived CaSR-specific nanobody acting as PAM, SEQ ID NO:4 (protein, CaSR Nb37) VHH: QVQLVESGGGLVQPGDSLRVSCAASGGSFRSYAMAWFRRAPGKEREFVAAMSGTYGSTIYADSMKGRFTISRDNAKKMVYLRMNSLRAEDTAVYYCAGYYSGAYYGTPKTDYTEYDSWGQGTQVTVSS |
|  |  | 3.52 ± 0.21 |  |  | 6.71 ± 0.08 | potentiated IP1 accumulation | Nb2: llama-derived CaSR-specific nanobody acting as PAM, SEQ ID NO:9 (protein, CaSR Nb2) VHH: QVQLVESGGGLVQAGSSLRLSCAASGRTFSNYRMAWFRQAPGKEREFVAVISRGGGGADYADSVKGRFTISRDNVKNTVSLQMNSLKPEDTAVYFCAARISGFSYYTSVDRYDYWGQGTQVTVSS |
|  |  | 3.50 ± 0.17 |  |  | 6.28 ± 0.07 | potentiated IP1 accumulation | Nb11: llama-derived CaSR-specific nanobody acting as PAM, SEQ ID NO:6 (protein, CaSR Nb11) VHH: QVQLVESGGGLVQAGGSLRLSCAASGRTFSTYRMGWFRQGPGKEREFVAAITATGVKTYYTDSVKGRFTISRDNAKNTVYLQMNSVQPEDTAVYSCAARIKAIFTAQQAATITDYDYWGQGTQVTVSS |
|  |  | 3.38 ± 0.36 |  |  | 6.59 ± 0.03 | potentiated IP1 accumulation | Nb15: llama-derived CaSR-specific nanobody acting as PAM, SEQ ID NO:10 (protein, CaSR Nb15) VHH: QVQLVESGGGLVQAGGSLRLSCAASGRTFNNYHMAWFRQAPGKEREFAAAISRRAGTTYYADSVKGRFTISRDNAKNTVYLQMNSLKPEDTAVYYCAADPDTYGVSYLARKYDYWGQGTQVTVSS |
